Paper PMC3903133, “Single-molecule analysis reveals self assembly and nanoscale segregation of two distinct cavin subcomplexes on caveolae” (eLife, 2014)
Values joined by “and” are separate entries in the source; they are usually repeats but may differ in a detail not shown here. Equal entries are not always repeated.

T1: cavin1-GFP (cell-free) (UniProt Q6NZI2 1-390)
T1 construct: cavin1 / polymerase transcript release factor (PTRF); ORF in a Gateway DNA template for cell-free expression; also called PTRF; source: Leishmania tarentolae cell-free system (LTE), in vitro translated, not purified; not shown: eGFP, N-terminal, kept
T1 sequence (looked up): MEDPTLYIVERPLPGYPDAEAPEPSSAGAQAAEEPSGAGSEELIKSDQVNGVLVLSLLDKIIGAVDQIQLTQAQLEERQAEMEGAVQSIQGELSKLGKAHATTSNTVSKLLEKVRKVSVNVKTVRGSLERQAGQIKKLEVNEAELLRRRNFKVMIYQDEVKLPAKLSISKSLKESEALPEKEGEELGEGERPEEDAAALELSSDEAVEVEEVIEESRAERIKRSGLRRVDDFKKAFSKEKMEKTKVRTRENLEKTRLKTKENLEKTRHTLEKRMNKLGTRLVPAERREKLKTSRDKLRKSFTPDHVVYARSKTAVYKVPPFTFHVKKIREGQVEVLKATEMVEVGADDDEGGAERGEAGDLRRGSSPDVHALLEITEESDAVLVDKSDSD

T2: CAV1 untagged (UniProt Q03135 1-178)
T2 construct: caveolin-1 (CAV1), untagged; construct cloned as described in Hill et al. (2008); also called caveolin-1; source: MCF-7 cells, transfected, in post nuclear supernatant
T2 sequence (looked up): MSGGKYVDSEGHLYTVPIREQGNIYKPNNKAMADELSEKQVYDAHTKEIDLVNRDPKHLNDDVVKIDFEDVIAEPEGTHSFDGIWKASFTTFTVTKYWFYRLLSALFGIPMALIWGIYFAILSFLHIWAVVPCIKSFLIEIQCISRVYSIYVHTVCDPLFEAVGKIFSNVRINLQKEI

T3: CAV1-GFP (UniProt Q03135 1-178)
T3 construct: caveolin-1 (CAV1); construct cloned as described in Hill et al. (2008); membrane protein, seen on caveolae in the cell extract; also called caveolin-1; Caveolin-1; source: MCF-7 cells, transfected, in post nuclear supernatant
T3 sequence (looked up): T2 sequence (looked up)

T4: cavin3-GFP (UniProt Q969G5 1-261)
T4 construct: construct cloned as described in Hill et al. (2008); The only hint on species is the keyword 'human'; the cDNA may be of mouse (surmise); also called SRBC; source: MCF-7, MDCK or HeLa cells, transfected (Lipofectamine 2000), in supernatant of mechanically lysed cells
T4 sequence (looked up): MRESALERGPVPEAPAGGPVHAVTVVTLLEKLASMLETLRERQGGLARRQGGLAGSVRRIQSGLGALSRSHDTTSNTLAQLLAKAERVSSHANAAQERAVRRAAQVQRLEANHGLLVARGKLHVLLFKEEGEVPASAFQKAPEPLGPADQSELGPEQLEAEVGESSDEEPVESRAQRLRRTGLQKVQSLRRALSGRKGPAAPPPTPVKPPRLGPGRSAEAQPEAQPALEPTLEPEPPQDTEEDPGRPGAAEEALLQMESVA

B1: cavin3-Cherry-myc (cell-free) (natural protein, UniProt Q969G5 1-261, looked up)
chain: T4 sequence (looked up)
notes: cavin3 / SRBC; ORF in a Gateway DNA template for cell-free expression; also called SRBC; cavin3-myc; source: Leishmania tarentolae cell-free system (LTE), in vitro translated, not purified; not shown: mCherry, C-terminal, kept; Myc, C-terminal, kept
B2: cavin3-Cherry (natural protein, UniProt Q969G5 1-261, looked up)
chain: T4 sequence (looked up)
notes: construct cloned as described in Hill et al. (2008); The only hint on species is the keyword 'human'; the cDNA may be of mouse (surmise); also called SRBC; C3-C; source: MCF-7 or MDCK cells, transfected (Lipofectamine 2000), in supernatant of mechanically lysed cells
B3: cavin1-GFP (natural protein, UniProt Q6NZI2 1-390, looked up)
chain: T1 sequence (looked up)
notes: cavin1 / polymerase transcript release factor (PTRF); construct cloned as described in Hill et al. (2008); The only hint on species is the keyword 'human'; the cDNA may be of mouse (surmise); also called polymerase transcript release factor; PTRF; source: MCF-7 or MDCK cells, transfected (Lipofectamine 2000), in supernatant of mechanically lysed cells
B4: cavin1-Cherry (natural protein, UniProt Q6NZI2 1-390, looked up)
chain: T1 sequence (looked up)
notes: cavin1 / polymerase transcript release factor (PTRF); construct cloned as described in Hill et al. (2008); The only hint on species is the keyword 'human'; the cDNA may be of mouse (surmise); also called PTRF; source: MCF-7 or MDCK cells, transfected (Lipofectamine 2000), in supernatant of mechanically lysed cells
B5: cavin2-GFP (natural protein, UniProt O95810 1-425, looked up)
chain: MGEDAAQAEKFQHPGSDMRQEKPSSPSPMPSSTPSPSLNLGNTEEAIRDNSQVNAVTVLTLLDKLVNMLDAVQENQHKMEQRQISLEGSVKGIQNDLTKLSKYQASTSNTVSKLLEKSRKVSAHTRAVKERMDRQCAQVKRLENNHAQLLRRNHFKVLIFQEENEIPASVFVKQPVSGAVEGKEELPDENKSLEETLHTVDLSSDDDLPHDEEALEDSAEEKVEESRAEKIKRSSLKKVDSLKKAFSRQNIEKKMNKLGTKIVSVERREKIKKSLTSNHQKISSGKSSPFKVSPLTFGRKKVREGESHAENETKSEDLPSSEQMPNDQEEESFAEGHSEASLASALVEGEIAEEAAEKATSRGSNSGMDSNIDLTIVEDEEEESVALEQAQKVRYEGSYALTSEEAERSDGDPVQPAVLQVHQTS
notes: cavin2 / SDPR (serum deprivation response protein); construct cloned as described in Hill et al. (2008); The only hint on species is the keyword 'human'; the cDNA may be of mouse (surmise); also called SDPR; serum deprivation response protein; source: MCF-7 or MDCK cells, transfected (Lipofectamine 2000), in supernatant of mechanically lysed cells

Columns and labels:
[1] = target: T1, cavin1-GFP (cell-free); assay: single-molecule two-colour fluorescence coincidence; co-expression in the Leishmania tarentolae cell-free system at DNA ratios from 100% GFP to 100% Cherry; >1000 bursts for each ratio; details: partners not purified
[2] = target: the molecule itself; assay: single-molecule brightness analysis; burst brightness of fluorescent cavins in supernatant of MCF-7 cells without CAV1, calibrated on monomeric GFP (maximum 100 photons)
[3] = target: T2, CAV1 untagged; assay: single-molecule brightness analysis; burst brightness in supernatant of MCF-7 cells transfected with CAV1-GFP, or with cavin1-GFP and untagged CAV1; calibrated on a single GFP; details: partners not purified
[4] = target: the molecule itself; assay: as above
[5] = target: T3, CAV1-GFP; assay: single-molecule two-colour fluorescence coincidence; MCF-7 cells expressing CAV1-GFP and cavin1-Cherry; caveolae in the post nuclear supernatant; details: partners not purified
[6] = target: B3; assay: single-molecule brightness analysis; burst brightness of oligomers in the cytoplasmic fraction of MDCK cells after hypo-osmotic treatment (20 min); details: partners not purified
[7] = target: B5; assay: single-molecule two-colour fluorescence coincidence; MDCK cells (endogenous cavin1 and CAV1) co-transfected; cytoplasmic fraction after hypo-osmotic treatment (DMEM 1:10 in water, 20 min, 37°C); details: partners not purified
[8] = target: T4, cavin3-GFP; assay: as above; details: partners not purified

Binder: B1
- stoichiometry N [1]: 3 cavin1 per cavin3

Binder: B2
- stoichiometry N [2]: ~50 monomers

Binder: B3
- stoichiometry N [2]: 50 ± 5 proteins per complex
- brightness of CAV1-GFP over cavin1-GFP [3]: 3.5 fold
- stoichiometry N [4]: 40 to 50 cavin1 per caveola

Binder: B4
- stoichiometry N [5]: 3 CAV1 per cavin1 and 4 CAV1 per cavin1
- stoichiometry N [6]: 9 cavin1 proteins per oligomer and 8 cavin1 proteins per oligomer to 10 cavin1 proteins per oligomer (2×)
- stoichiometry N [7]: 2 cavin1 per cavin2
- stoichiometry N [8]: ~2 cavin1 per cavin3

Binder: B5
- stoichiometry N [2]: ~50 monomers
